Experimental data published in article PMC12908443 (Nature metabolism, 2021).

B1: Recombinant CL7-tagged Sas2 (Sas2–CL7) (enzyme, budding yeast (S. cerevisiae), UniProt P40963 1-338, looked up)
chain: MARSLSQSLTATTQKLKGKKNGGKGKNKPSAKIKKTQKEMLYGILNERNIRQIQFGLNKKFSTWYGSAVYFDPETKRLGCSETKGQLSSVSNSQYWLDTLFVCEYCFKYTDDQTRFVGHVASCPFQYRVPGKIKYKSPEYTIRRVKGSKYQLFCQCLCLFTKLYLDNKSMYFKVDHYEFYIVYETGSTKPMGFFSKDLVSYQQNNLACILIFPPYQRRGLGLLLIEFSYKLSQLEGVISGPEVPLSPFGLIGYLKYWSQILCWHLIEGDLAHYDKVTLEDLSIVTGMRVNDVILTLKHLNCIGENNQIYLQSLNSWLKLHGTKRNWFKLKDEYLLIDD
B2: Purified recombinant Sas2 (Sas2–His6) (enzyme, budding yeast (S. cerevisiae), UniProt P40963 1-338, looked up)
chain: B1 chain

What was measured:
[1] = biological target: T1, Recombinant 6 × His-tagged Acs2 (Acs2–His6) (budding yeast (S. cerevisiae), UniProt P52910 1-683); assay: pull-down
T1 sequence (looked up): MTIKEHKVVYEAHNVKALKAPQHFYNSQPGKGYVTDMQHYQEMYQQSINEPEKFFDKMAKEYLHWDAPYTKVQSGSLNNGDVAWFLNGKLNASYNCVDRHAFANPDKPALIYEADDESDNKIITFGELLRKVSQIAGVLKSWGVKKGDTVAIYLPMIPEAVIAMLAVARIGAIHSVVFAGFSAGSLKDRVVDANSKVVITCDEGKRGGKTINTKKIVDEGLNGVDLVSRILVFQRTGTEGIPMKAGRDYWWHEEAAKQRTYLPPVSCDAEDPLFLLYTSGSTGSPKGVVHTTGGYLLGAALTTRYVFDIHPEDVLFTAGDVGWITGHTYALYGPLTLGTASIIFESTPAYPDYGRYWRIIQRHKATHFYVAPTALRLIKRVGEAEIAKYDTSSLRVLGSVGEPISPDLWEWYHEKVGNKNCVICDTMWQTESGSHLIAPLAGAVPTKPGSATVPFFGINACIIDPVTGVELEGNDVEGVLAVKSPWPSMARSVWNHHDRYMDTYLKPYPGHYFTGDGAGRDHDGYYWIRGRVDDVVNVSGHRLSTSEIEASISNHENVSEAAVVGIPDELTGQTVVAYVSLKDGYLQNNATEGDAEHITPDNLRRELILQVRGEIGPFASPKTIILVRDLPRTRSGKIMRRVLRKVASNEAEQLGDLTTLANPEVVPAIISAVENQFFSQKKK

[2] = biological target: T2, Glutathione S-transferase (GST)–Acs2 (budding yeast (S. cerevisiae), UniProt P52910 1-683); assay: pull-down
T2 sequence (looked up): T1 sequence (looked up)

Binder | binding result [1] | binding result [2]
B1 | binds | 
B2 |  | binds
